According to patent US20110274697A1, “NOVEL USES” (priority 2009, published 2011):

Tests used:
CD20 on JVM-3 cells = target: T1, CD20 on JVM-3 cells (Homo sapiens, UniProt P11836); test: FACS binding of fluorescently labeled anti-CD20 antibodies to JVM-3 cells; conditions: fluorescently labeled antibody, BD FACSCanto, FIG. 2
T1 construct: medium level expression profile of CD20 on JVM-3 cells; endogenous in cells; host or cells: JVM-3 cells
T1 sequence (P11836 1-297): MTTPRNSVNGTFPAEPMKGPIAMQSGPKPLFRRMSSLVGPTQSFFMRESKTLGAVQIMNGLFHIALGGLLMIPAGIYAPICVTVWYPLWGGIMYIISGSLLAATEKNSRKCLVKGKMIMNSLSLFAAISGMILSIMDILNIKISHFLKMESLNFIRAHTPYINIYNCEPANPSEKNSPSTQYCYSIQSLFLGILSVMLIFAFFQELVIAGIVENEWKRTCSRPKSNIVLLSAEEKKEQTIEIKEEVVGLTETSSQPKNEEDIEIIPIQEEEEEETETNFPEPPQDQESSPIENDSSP
Description: One microgram of each antibody was prepared in PBS and five microliters of the Zenon human IgG labeling reagent (Component A) was added to the antibody solution. The mixture was incubated for five minutes at room temperature and then five microliters of the Zenon blocking reagent (Component B) was added to the reaction mixture. After another five minutes at room temperature the complexes were ready to be used. 5×10^6 cells/ml of viable JVM-3 cells were resuspended in PBS. 100 ul of the cells were added to each tube. 10 ul of human IgG was added to block non-specific binding. The cells and human IgG were incubated for 10 minutes. […] The mixture was incubated for an additional 30 minutes on ice in the dark. Then 500 ul of PBS was added to the cells and they were centrifuged for 5 minutes at 1000 rpm. The supernatant was removed and 500 ul of PBS was added and the cells were centrifuged again. Again the supernatant was removed and the cells resuspended in 300 ul of PBS. The cells were analyzed on a BD FACSCanto.

[1] = tested on: cells with low CD20 density; conditions: compared to rituximab; especially in cells with low CD20 density, as in CLL; cited from earlier work

## ofatumumab: new generation, human monoclonal antibody that targets a membrane proximal, small loop epitope of the CD20 molecule; 2F2 antibody in WO2004/035607
CD20 on JVM-3 cells
  receptor bound on the cell surface: bound more receptors on the cell surface than rituxan antibody did
[1]
  induction of tumor cell lysis by CDC activity: superior induction of tumor cell lysis by CDC
